# Measurements reported in patent US20230041822A1 (Molecular Partners, published 2023).
# Tests used:
# [1] = molecular target: T1, HBVc18 peptide-MHC complex (HBVc18pMHC), biotinylated recombinant tripartite complex of HLA-A*0201, human … (human; hepatitis B virus); test: SPR (ProteOn), biotinylated HBVc18pMHC on NLC chip, ankyrin repeat protein injected, PBST
# T1 construct: also called HLA-A*0201: HBc18; target peptide-MHC complex
# Experimental: (§1) Briefly, biotinylated HBVc18pMHC were diluted in PBST (PBS, pH 7.4 containing 0.005% Tween 20®) and coated on a NLC chip (BioRad) to a level of around 1000 resonance units (RU). […] No target regeneration was performed. The signals (i.e. resonance unit (RU) values) of the interspots were subtracted from the RU traces obtained after injection of ankyrin repeat protein. Based on the SPR traces obtained from the on-rate and off-rate measurements, the on- and off-rates of the corresponding ankyrin repeat proteins towards the pMHC complexes were determined.
# Dissociation constants (KD) were calculated from the estimated on- and off-rates using standard procedures known to the person skilled in the art.
# [2] = molecular target: T1, HBVc18 peptide-MHC complex …; test: SPR (ProteOn), biotinylated HBVc18pMHC on the NLC chip, DARPin protein injected, multi-trace fit [continued) J]
# Experimental: (§2) The binding affinities of the purified ankyrin repeat proteins on the HBVc18pMHC target were analyzed using a ProteOn Surface Plasmon Resonance (SPR) instrument (BioRad) and the measurement was performed according standard procedures known to the person skilled in the art.
# as §1
# [3] = molecular target: T1, HBVc18 peptide-MHC complex …; test: SPR (ProteOn), biotinylated HBVc18pMHC on the NLC chip, DARPin protein injected, multi-trace fit
# Experimental: as §2, §1
# [4] = molecular target: T1, HBVc18 peptide-MHC complex …; test: SPR (ProteOn), biotinylated HBVc18pMHC on the NLC chip, DARPin protein injected, multi-trace fit [continued) E]
# Experimental: as §2, §1
# [5] = molecular target: T1, HBVc18 peptide-MHC complex …; test: SPR (ProteOn), biotinylated HBVc18pMHC on the NLC chip, DARPin protein injected, multi-trace fit [continued) F]
# Experimental: as §2, §1
# [6] = molecular target: T1, HBVc18 peptide-MHC complex …; test: SPR (ProteOn), biotinylated HBVc18pMHC on the NLC chip, DARPin protein injected, multi-trace fit; remark: listed apart in the source
# Experimental: as §2, §1
# [7] = molecular target: T1, HBVc18 peptide-MHC complex …; test: SPR (ProteOn), biotinylated HBVc18pMHC on the NLC chip, DARPin protein injected, multi-trace fit [continued) G]
# Experimental: as §2, §1
# [8] = molecular target: T1, HBVc18 peptide-MHC complex …; test: SPR (ProteOn), biotinylated HBVc18pMHC on the NLC chip, DARPin protein injected, multi-trace fit; remark: listed apart in the source
# Experimental: as §2, §1
# [9] = molecular target: T1, HBVc18 peptide-MHC complex …; test: SPR (ProteOn), biotinylated HBVc18pMHC on the NLC chip, DARPin protein injected, multi-trace fit [continued) D]
# Experimental: as §2, §1
# [10] = molecular target: T1, HBVc18 peptide-MHC complex …; test: SPR (ProteOn), biotinylated HBVc18pMHC on the NLC chip, DARPin protein injected, multi-trace fit [continued) H]
# Experimental: as §2, §1
# [11] = molecular target: T1, HBVc18 peptide-MHC complex …; test: SPR (ProteOn), biotinylated HBVc18pMHC on the NLC chip, DARPin protein injected, multi-trace fit [continued) I]
# Experimental: as §2, §1
binder,measurement,setting,value
"TCE DARPin® protein #26 (designed binder, not shown: small tags and cut ends) GSDLGKKLLQAARAGQLDEVHELLKAGADVNAKDQHGKTPMHLAAQIGHLEIVEVLLKAGADVNAKDHIGWTPLHLAASVGHLEIVEVLLKAGADVNAKDQEGWTPLHVAAQLGHLEIVEVLLKAGADVNAQDKSGKTPADLAARAGHQDSAEVLQKAA",Kd,[1],9.33 nM
same,koff,[2],0.000812 s⁻¹
same,kon,[2],87000 M⁻¹ s⁻¹
"TCE DARPin® protein #17 (designed binder, not shown: small tags and cut ends) GSDLGQKLLLAAAIGQDDEVRILLAAGADVNAKDESGHTPLHYAAHVGHLEIVEVLLKAGDVNAKDHRGFTPLHVAAQIGHLEIVEVLLKAGADVNAQDNWGITPADLAAWWGHEDIAEVLQKAA",Kd,[1],0.369 nM
same,koff,[3],6.24e-06 s⁻¹
same,kon,[3],16900 M⁻¹ s⁻¹
"TCE DARPin® protein #21 (designed binder, not shown: small tags and cut ends) GSDLGIKLLFAANFGQDDEVRILLAAGADVNAKDQSGRTPLHLAALWGHLEIVEVLLKAGADVNAKDVFGLTPLHIAATFGHLEIVEVLLKAGVDVNAQDYTGHTPADLAALIGHEDIAEVLQKAA",Kd,[1],9.23 nM
same,koff,[4],0.00106 s⁻¹
same,kon,[4],115000 M⁻¹ s⁻¹
"TCE DARPin® protein #22 (designed binder, not shown: small tags and cut ends) GSDLGKKLLSAAQSGQDDEVRILLGAGADVNAKDKWGHTPLHLAAVKGHLEIAEVLLKAGADVNAKDEWGSTPLHLAASQGHLEIVEVLLKAGADVNAKDKKGATPLHLAALVGHLEIVEVLLKAVADVNAQDKSGKTPADLAARAGHQDIAEVLQKAA",Kd,[1],13.8 nM
same,koff,[5],0.0115 s⁻¹
same,kon,[5],833000 M⁻¹ s⁻¹
"TCE DARPin® protein #18 (designed binder, not shown: small tags and cut ends) GSDLGYKLLTAAIVGQDDEVRILLAAGADVNAKDQSGLTPLHLAAAYGHLEIVEVLLKAGADVNAKDKHGRTPLHLAALEGHLEIVEVLLKAGADVNAQDQFGITPADLAAAVGHEDIAEVLQKAA",Kd,[1],7.15 nM
same,koff,[6],0.00218 s⁻¹
same,kon,[6],305000 M⁻¹ s⁻¹
"TCE DARPin® protein #23 (designed binder, not shown: small tags and cut ends) GSDLGQKLLTAAIVGQDDEVRILLAAGADVNAKDQSGLTPLHLAAAYGHLEIVEVLLKAGADVNAKDKHGRTPLHLAALEGHLEIVEVLLKAGADVNAQDQFGITPADLAAAVGHEDIAEVLQKAA",Kd,[1],7.1 nM
same,koff,[7],0.00274 s⁻¹
same,kon,[7],387000 M⁻¹ s⁻¹
"TCE DARPin® protein #16 (designed binder, not shown: small tags and cut ends) GSDLGHKLLFAASAGQDDEVRILLAAGADVNAKDESGQTPLHYAAFVGHLEIVEVLLKAGADVNAKDQWGHTPLHVAATFGHLEIVEVLLKAGADVNAQDTWGTTPADLAATFGHEDIAEVLQKAA",Kd,[1],4.65 nM
same,koff,[8],0.000307 s⁻¹
same,kon,[8],66100 M⁻¹ s⁻¹
"TCE DARPin® protein #20 (designed binder, not shown: small tags and cut ends) GSDLGFKLLEAALEGQDDEVRILLAAGADVNAKDESGQTPLHYAAFVGHLEIVEVLLKAGADVNAKDQWGHTPLHVAATFGHLEIVEVLLKAGADVNAQDTWGTTPADLAATFGHEDIAEVLQKAA",Kd,[1],0.736 nM
same,koff,[9],3.26e-05 s⁻¹
same,kon,[9],44300 M⁻¹ s⁻¹
"TCE DARPin® protein #24 (designed binder, not shown: small tags and cut ends) GSDLGWKLLHAATTGQDDEVRILLAAGADVNAKDESGQTPLHYAAFVGHLEIVEVLLKAGADVNAKDQWGHTPLHVAATFGHLEIVEVLLKAGADVNAQDTWGTTPADLAATFGHEDIAEVLQKAA",Kd,[1],4.72 nM
same,koff,[10],0.000288 s⁻¹
same,kon,[10],61100 M⁻¹ s⁻¹
"TCE DARPin® protein #25 (designed binder, not shown: small tags and cut ends) GSDLGSKLLYAAISGQDDEVRILLAAGADVNAKDESGQTPLHYAAFVGHLEIVEVLLKAGADVNAKDQWGHTPLHVAATFGHLEIVEVLLKAGADVNAQDTWGTTPADLAATFGHEDIAVVLQKAA",Kd,[1],1.03 nM
same,koff,[11],3.17e-05 s⁻¹
same,kon,[11],30800 M⁻¹ s⁻¹
